Laboratory results from publication PMC7074877 (ACS chemical neuroscience, 2018).

Assay: Transmission electron microscopy of assemblies
Format: physicochemical
Conditions: 7 μL aliquots on carbon-coated copper grids, stained with 1% uranyl acetate

HEWL: fibrils from hen egg white lysozyme, positive control for ThT and TEM
average diameter of assemblies by TEM: 38 nm
